From article PMC9352680, “A comprehensive thermodynamic model for RNA binding by the Saccharomyces cerevisiae Pumilio protein PUF4”

T1: PUF4 RNA-binding domain (Saccharomyces cerevisiae, UniProt P25339 537-888)
T1 sequence: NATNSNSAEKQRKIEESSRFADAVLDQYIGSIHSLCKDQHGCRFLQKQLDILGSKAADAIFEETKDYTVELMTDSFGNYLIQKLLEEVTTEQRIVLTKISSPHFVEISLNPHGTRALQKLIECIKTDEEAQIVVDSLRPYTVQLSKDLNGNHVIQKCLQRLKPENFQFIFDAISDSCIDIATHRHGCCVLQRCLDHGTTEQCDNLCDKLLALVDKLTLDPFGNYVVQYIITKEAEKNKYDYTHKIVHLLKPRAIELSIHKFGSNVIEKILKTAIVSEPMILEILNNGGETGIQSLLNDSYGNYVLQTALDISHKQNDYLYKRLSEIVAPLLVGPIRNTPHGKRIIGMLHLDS


Molecular target: T1, PUF4 RNA-binding domain
Test: Mg; RNA-MaP; 20 mM Na-HEPES pH 7.4, 30 mM KOAc, 0.75 mM MgCl2, 0.1% Tween-20, 5% glycerol, 0.1 mg/mL BSA, 2 mM DTT; 25 C; 0.0125-409.6 nM protein
Conditions: tags: N-His6-TEV cleaved; C-SNAP kept, Cy3B-labelled; label: tethered on chip by stalled RNA polymerase

Binder | Kd [nM]
UCUCUUACUAUAUAUUACGUCUCUU (ssRNA) [Id_ii_S1_P4E.3_K4.2_C4.2_[C-2A]_[T-1C]_H4.2_A4.1_F4.1_T4.2_[G10C]_[T11G]] | 51.9
UCUCUUACUAUAUAUUACCUCUCUU (ssRNA) [Id_ii_S1_P4E.3_K4.2_C4.2_[C-2A]_[T-1C]_H4.2_A4.1_F4.1_T4.2_[G10C]_[T11C]] | 38.3
UCUCUUACUAUAUAUUACUUCUCUU (ssRNA) [Id_ii_S1_P4E.3_K4.2_C4.2_[C-2A]_[T-1C]_H4.2_A4.1_F4.1_T4.2_[G10C]] | 26.2
UCUCUUACUAUAUAUUAUGUCUCUU (ssRNA) [Id_ii_S1_P4E.3_K4.2_C4.2_[C-2A]_[T-1C]_H4.2_A4.1_F4.1_T4.2_[G10T]_[T11G]] | 22.5
UCUCUUACUAUAUAUUAUCUCUCUU (ssRNA) [Id_ii_S1_P4E.3_K4.2_C4.2_[C-2A]_[T-1C]_H4.2_A4.1_F4.1_T4.2_[G10T]_[T11C]] | 29.3
UCUCUUACUAUAUAUUAUAUCUCUU (ssRNA) [Id_ii_S1_P4E.3_K4.2_C4.2_[C-2A]_[T-1C]_H4.2_A4.1_F4.1_T4.2_[G10T]_[T11A]] | 27.2
UCUCUUACUAUAUAUUAUUUCUCUU (ssRNA) [Id_ii_S1_P4E.3_K4.2_C4.2_[C-2A]_[T-1C]_H4.2_A4.1_F4.1_T4.2_[G10T]] | 25.9
UCUCUUUGUCUCUUAUCUCUU (ssRNA) [Ib_S1_P4E.1_K4.1_C4.1_H4.1_[A4C]_A4.1_[A6C]_F4.1_T4.1] | 813
UCUCUUACUAUAUAUUAACUCUCUU (ssRNA) [Id_ii_S1_P4E.3_K4.2_C4.2_[C-2A]_[T-1C]_H4.2_A4.1_F4.1_T4.2_[G10A]_[T11C]] | 33
UCUCUUACUAUAUAUUAAAUCUCUU (ssRNA) [Id_ii_S1_P4E.3_K4.2_C4.2_[C-2A]_[T-1C]_H4.2_A4.1_F4.1_T4.2_[G10A]_[T11A]] | 87.3
UCUCUUACUAUAUAUUAAUUCUCUU (ssRNA) [Id_ii_S1_P4E.3_K4.2_C4.2_[C-2A]_[T-1C]_H4.2_A4.1_F4.1_T4.2_[G10A]] | 37.5
UCUCUUAAUAUAUAUUACGUCUCUU (ssRNA) [Id_ii_S1_P4E.3_K4.2_C4.2_[C-2A]_[T-1A]_H4.2_A4.1_F4.1_T4.2_[G10C]_[T11G]] | 163
UCUCUUAAUAUAUAUUACCUCUCUU (ssRNA) [Id_ii_S1_P4E.3_K4.2_C4.2_[C-2A]_[T-1A]_H4.2_A4.1_F4.1_T4.2_[G10C]_[T11C]] | 76.2
UCUCUUAAUAUAUAUUACAUCUCUU (ssRNA) [Id_ii_S1_P4E.3_K4.2_C4.2_[C-2A]_[T-1A]_H4.2_A4.1_F4.1_T4.2_[G10C]_[T11A]] | 48.9
UCUCUUAAUAUAUAUUACUUCUCUU (ssRNA) [Id_ii_S1_P4E.3_K4.2_C4.2_[C-2A]_[T-1A]_H4.2_A4.1_F4.1_T4.2_[G10C]] | 56.4
UCUCUUAAUAUAUAUUAUCUCUCUU (ssRNA) [Id_ii_S1_P4E.3_K4.2_C4.2_[C-2A]_[T-1A]_H4.2_A4.1_F4.1_T4.2_[G10T]_[T11C]] | 79.9
UCUCUUAAUAUAUAUUAUUUCUCUU (ssRNA) [Id_ii_S1_P4E.3_K4.2_C4.2_[C-2A]_[T-1A]_H4.2_A4.1_F4.1_T4.2_[G10T]] | 54.1
UCUCUUAAUAUAUAUUAACUCUCUU (ssRNA) [Id_ii_S1_P4E.3_K4.2_C4.2_[C-2A]_[T-1A]_H4.2_A4.1_F4.1_T4.2_[G10A]_[T11C]] | 442
UCUCUUUGUCUUUUAUCUCUU (ssRNA) [Ib_S1_P4E.1_K4.1_C4.1_H4.1_[A4C]_A4.1_[A6T]_F4.1_T4.1] | 333
UCUCUUAAUAUAUAUUAGCUCUCUU (ssRNA) [Id_ii_S1_P4E.3_K4.2_C4.2_[C-2A]_[T-1A]_H4.2_A4.1_F4.1_T4.2_[T11C]] | 38.8
UCUCUUAAUAUAUAUUAGUUCUCUU (ssRNA) [Id_ii_S1_P4E.3_K4.2_C4.2_[C-2A]_[T-1A]_H4.2_A4.1_F4.1_T4.2] | 26.7
UCUCUUAUUAUAUAUUACCUCUCUU (ssRNA) [Id_ii_S1_P4E.3_K4.2_C4.2_[C-2A]_H4.2_A4.1_F4.1_T4.2_[G10C]_[T11C]] | 39
UCUCUUAUUAUAUAUUACAUCUCUU (ssRNA) [Id_ii_S1_P4E.3_K4.2_C4.2_[C-2A]_H4.2_A4.1_F4.1_T4.2_[G10C]_[T11A]] | 42.9
UCUCUUAUUAUAUAUUACUUCUCUU (ssRNA) [Id_ii_S1_P4E.3_K4.2_C4.2_[C-2A]_H4.2_A4.1_F4.1_T4.2_[G10C]] | 20.1
UCUCUUAUUAUAUAUUAUGUCUCUU (ssRNA) [Id_ii_S1_P4E.3_K4.2_C4.2_[C-2A]_H4.2_A4.1_F4.1_T4.2_[G10T]_[T11G]] | 18.8

Binder | Kd [nM]
UCUCUUAUUAUAUAUUAUCUCUCUU (ssRNA) [Id_ii_S1_P4E.3_K4.2_C4.2_[C-2A]_H4.2_A4.1_F4.1_T4.2_[G10T]_[T11C]] | 18.9
UCUCUUAUUAUAUAUUAUAUCUCUU (ssRNA) [Id_ii_S1_P4E.3_K4.2_C4.2_[C-2A]_H4.2_A4.1_F4.1_T4.2_[G10T]_[T11A]] | 26.5
UCUCUUAUUAUAUAUUAUUUCUCUU (ssRNA) [Id_ii_S1_P4E.3_K4.2_C4.2_[C-2A]_H4.2_A4.1_F4.1_T4.2_[G10T]] | 9.53
UCUCUUAUUAUAUAUUAACUCUCUU (ssRNA) [Id_ii_S1_P4E.3_K4.2_C4.2_[C-2A]_H4.2_A4.1_F4.1_T4.2_[G10A]_[T11C]] | 44.1
UCUCUUUGUUUCUUAUCUCUU (ssRNA) [Ib_S1_P4E.1_K4.1_C4.1_H4.1_[A4T]_A4.1_[A6C]_F4.1_T4.1] | 370
UCUCUUAUUAUAUAUUAAAUCUCUU (ssRNA) [Id_ii_S1_P4E.3_K4.2_C4.2_[C-2A]_H4.2_A4.1_F4.1_T4.2_[G10A]_[T11A]] | 72.4
UCUCUUAUUAUAUAUUAAUUCUCUU (ssRNA) [Id_ii_S1_P4E.3_K4.2_C4.2_[C-2A]_H4.2_A4.1_F4.1_T4.2_[G10A]] | 25.6
UCUCUUAUUAUAUAUUAGCUCUCUU (ssRNA) [Id_ii_S1_P4E.3_K4.2_C4.2_[C-2A]_H4.2_A4.1_F4.1_T4.2_[T11C]] | 15.7
UCUCUUCGUAUAUAUUAUUUCUCUU (ssRNA) [Id_ii_S1_P4E.3_K4.2_C4.2_[T-1G]_H4.2_A4.1_F4.1_T4.2_[G10T]] | 21.9
UCUCUUCGUAUAUAUUAAGUCUCUU (ssRNA) [Id_ii_S1_P4E.3_K4.2_C4.2_[T-1G]_H4.2_A4.1_F4.1_T4.2_[G10A]_[T11G]] | 101
UCUCUUCGUAUAUAUUAACUCUCUU (ssRNA) [Id_ii_S1_P4E.3_K4.2_C4.2_[T-1G]_H4.2_A4.1_F4.1_T4.2_[G10A]_[T11C]] | 29.9
UCUCUUCGUAUAUAUUAAAUCUCUU (ssRNA) [Id_ii_S1_P4E.3_K4.2_C4.2_[T-1G]_H4.2_A4.1_F4.1_T4.2_[G10A]_[T11A]] | 51.6
UCUCUUCGUAUAUAUUAGCUCUCUU (ssRNA) [Id_ii_S1_P4E.3_K4.2_C4.2_[T-1G]_H4.2_A4.1_F4.1_T4.2_[T11C]] | 9.29
UCUCUUCGUAUAUAUUAGUUCUCUU (ssRNA) [Id_ii_S1_P4E.3_K4.2_C4.2_[T-1G]_H4.2_A4.1_F4.1_T4.2] | 8.31
UCUCUUCCUAUAUAUUACGUCUCUU (ssRNA) [Id_ii_S1_P4E.3_K4.2_C4.2_[T-1C]_H4.2_A4.1_F4.1_T4.2_[G10C]_[T11G]] | 32.8
UCUCUUUGUUUUUUAUCUCUU (ssRNA) [Ib_S1_P4E.1_K4.1_C4.1_H4.1_[A4T]_A4.1_[A6T]_F4.1_T4.1] | 100
UCUCUUCCUAUAUAUUACCUCUCUU (ssRNA) [Id_ii_S1_P4E.3_K4.2_C4.2_[T-1C]_H4.2_A4.1_F4.1_T4.2_[G10C]_[T11C]] | 28
UCUCUUCCUAUAUAUUACUUCUCUU (ssRNA) [Id_ii_S1_P4E.3_K4.2_C4.2_[T-1C]_H4.2_A4.1_F4.1_T4.2_[G10C]] | 20.1
UCUCUUCCUAUAUAUUAUGUCUCUU (ssRNA) [Id_ii_S1_P4E.3_K4.2_C4.2_[T-1C]_H4.2_A4.1_F4.1_T4.2_[G10T]_[T11G]] | 21.1
UCUCUUCCUAUAUAUUAUCUCUCUU (ssRNA) [Id_ii_S1_P4E.3_K4.2_C4.2_[T-1C]_H4.2_A4.1_F4.1_T4.2_[G10T]_[T11C]] | 18.5
UCUCUUCCUAUAUAUUAUAUCUCUU (ssRNA) [Id_ii_S1_P4E.3_K4.2_C4.2_[T-1C]_H4.2_A4.1_F4.1_T4.2_[G10T]_[T11A]] | 14.5
UCUCUUCCUAUAUAUUAUUUCUCUU (ssRNA) [Id_ii_S1_P4E.3_K4.2_C4.2_[T-1C]_H4.2_A4.1_F4.1_T4.2_[G10T]] | 26.9
UCUCUUCCUAUAUAUUAAGUCUCUU (ssRNA) [Id_ii_S1_P4E.3_K4.2_C4.2_[T-1C]_H4.2_A4.1_F4.1_T4.2_[G10A]_[T11G]] | 87.6
UCUCUUCCUAUAUAUUAACUCUCUU (ssRNA) [Id_ii_S1_P4E.3_K4.2_C4.2_[T-1C]_H4.2_A4.1_F4.1_T4.2_[G10A]_[T11C]] | 29.3
